Reference: the supplement of paper PMC7877785
± gives the uncertainty stated by the source.

Test: self-splicing fitness, log relative to wild type (ln ratio); higher = more splicing; Tetrahymena group I intron in knt gene, E. coli kanamycin selection, DiMSum; sequences stand for … in CUCUCU…GGAGGGAAAAGUUAUCAGGCAUGCACCUGGUAGCUAGUCUUUAAACCAAUAGAUUGCAUCGGUUUAAAAGGCAAGACCGUCAAAUUGCGGGAAAGGGGUCAACAGCCGUUCAGUACCAAGUCUCAGGGGAAACUUUGAGAUGGCCUUGCAAAGGGUAUGGUAAUAAGCUGACGGACAUGGUCCUAACCACGCAGCCAAGUCCUAAGUCAACAGAUCUUCUGUUGAUAUGGAUGCAGUUCACAGACUAAAUGUCGGUCGGGGAAGAUGUAUUCUUCUCAUAAGAUAUAGUCGGACCUCUCCUUAAUGGGAGCUAGCGGAUGAAGUGAUGCAACACUGGAGCCGCUGGGAACUAAUUUGUAUGCGAAAGUAUAUUGAUUAGUUUUGGAGUACUCGUGGUCG
Procedure, shortened: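 Colonies from six replicate transformations of E. coli BL21(DE3) were pooled and amplicon-sequenced on an Illumina HiSeq 2500. The library placed an intron with all eight P1ex-region nucleotides randomised inside the knt kanamycin-resistance gene on pET-22b(+), and cells grew overnight at 37°C or 30°C on LB agar with or without 25 μg/mL kanamycin (plus 100 μg/mL carbenicillin, 50 μM IPTG, 0.2% rhamnose). Fitness is the DiMSum error-weighted combination of wild-type-normalised replicate fold changes, kanamycin versus none.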

| Sequence | self-splicing fitness (ln) (30 °C) | self-splicing fitness (ln) (37 °C) |
| --- | --- | --- |
| CAGAAGCAAUAUUACGUGCG | -0.578 ± 0.07 | 0.0457 ± 0.099 |
| UCUUAGCAAUAUUACGGAGG | -2.67 ± 0.34 | -2.17 ± 0.31 |
| CUAUAGCAAUAUUACGCCGU | -3.51 ± 0.29 | -2.6 ± 0.44 |
| CAGGAGCAAUAUUACGGUGU | -3.1 ± 0.15 | -2.66 ± 0.2 |
| UGCUAGCAAUAUUACGGUGG | -1.94 ± 0.066 | -1.33 ± 0.086 |
| UGUUAGCAAUAUUACGGCGG | -0.72 ± 0.09 | -0.356 ± 0.1 |
| AAGCAGCAAUAUUACGAUAA | -1.69 ± 0.12 | -1.16 ± 0.13 |
| CCAGAGCAAUAUUACGCGGA | -3.2 ± 0.34 | -2.49 ± 0.24 |
| ACUGAGCAAUAUUACGACAA | -2.96 ± 0.2 | -2.4 ± 0.23 |
| UUUCAGCAAUAUUACGGCUA | 0.189 ± 0.14 | 0.336 ± 0.12 |
| UCCAAGCAAUAUUACGGGUG | -1.63 ± 0.05 | -0.583 ± 0.06 |
| UUAGAGCAAUAUUACGCUGA | -2.6 ± 0.21 | -0.656 ± 0.28 |
| GGUCAGCAAUAUUACGAGAC | -2.27 ± 0.23 | -1.29 ± 0.31 |
| CAGAAGCAAUAUUACGGCUG | -2.29 ± 0.19 | -2.49 ± 0.23 |
| UACGAGCAAUAUUACGUCAG | -3.08 ± 0.34 | -3.01 ± 0.36 |
| UUGUAGCAAUAUUACGGUCG | -0.458 ± 0.12 | -0.593 ± 0.15 |
| UGGCAGCAAUAUUACGCGGU | -2.54 ± 0.16 | -2.62 ± 0.31 |
| AACGAGCAAUAUUACGUCAA | -3.08 ± 0.23 | -3.35 ± 0.3 |
| UCGGAGCAAUAUUACGAUAC | -3.5 ± 0.35 | -0.757 ± 0.33 |
| AGGUAGCAAUAUUACGCUUG | -1.541 ± 0.015 | -1.04 ± 0.034 |
| CUAAAGCAAUAUUACGGCCA | -3.21 ± 0.31 | -2.08 ± 0.4 |
| AAUCAGCAAUAUUACGCAUA | -0.272 ± 0.085 | -0.142 ± 0.13 |
| AGAAAGCAAUAUUACGCGUC | -1.84 ± 0.12 | -1.32 ± 0.15 |
| ACAUAGCAAUAUUACGACCA | -0.589 ± 0.12 | 0.121 ± 0.14 |
| GGACAGCAAUAUUACGCUGU | -2.73 ± 0.21 | -2.96 ± 0.31 |

| Sequence | self-splicing fitness (ln) (30 °C) | self-splicing fitness (ln) (37 °C) |
| --- | --- | --- |
| UACCAGCAAUAUUACGACCU | -2.1 ± 0.17 | -1.57 ± 0.17 |
| UCACAGCAAUAUUACGAAGA | -1.18 ± 0.085 | -1.09 ± 0.093 |
| GGUCAGCAAUAUUACGAACA | -0.818 ± 0.14 | -0.749 ± 0.17 |
| AGCAAGCAAUAUUACGUACC | -0.796 ± 0.078 | 0.398 ± 0.097 |
| CCUUAGCAAUAUUACGUGGA | -4.29 ± 0.34 | -2 ± 0.2 |
| GCCAAGCAAUAUUACGUUUC | -2.86 ± 0.18 | -0.805 ± 0.12 |
| AGAGAGCAAUAUUACGAGUC | – | -2.23 ± 0.29 |
| AGUAAGCAAUAUUACGUUCC | -1.85 ± 0.16 | -0.345 ± 0.13 |
| CUAAAGCAAUAUUACGUCGG | -0.261 ± 0.061 | -0.189 ± 0.078 |
| GAGCAGCAAUAUUACGAAGA | -2.69 ± 0.45 | -1.14 ± 0.27 |
| CACCAGCAAUAUUACGAGCG | -0.154 ± 0.066 | 0.288 ± 0.086 |
| GAAUAGCAAUAUUACGGUUU | -1.03 ± 0.078 | -1.11 ± 0.1 |
| UUGAAGCAAUAUUACGCCAG | -0.461 ± 0.14 | 0.214 ± 0.21 |
| UACCAGCAAUAUUACGCCUA | 0.00559 ± 0.047 | 0.659 ± 0.065 |
| AGAAAGCAAUAUUACGGAAU | -2.02 ± 0.15 | -1.74 ± 0.2 |
| GGCCAGCAAUAUUACGUCAU | -1.7 ± 0.063 | -1.27 ± 0.08 |
| CUUAAGCAAUAUUACGCAAA | -2.76 ± 0.4 | – |
| ACUCAGCAAUAUUACGCAUC | -2.72 ± 0.15 | -1.48 ± 0.11 |
| AGUUAGCAAUAUUACGAGGA | -2.32 ± 0.26 | -2.43 ± 0.25 |
| CACCAGCAAUAUUACGCGUU | -2.15 ± 0.062 | -0.539 ± 0.067 |
| CUCCAGCAAUAUUACGUCUG | -3.51 ± 0.17 | -2.54 ± 0.18 |
| UAAAAGCAAUAUUACGGGGA | -1.73 ± 0.12 | -0.962 ± 0.12 |
| GAAAAGCAAUAUUACGUAAC | -2.11 ± 0.18 | -1.38 ± 0.17 |
| AUCGAGCAAUAUUACGAUAU | -2.14 ± 0.17 | -0.583 ± 0.14 |
| GGCUAGCAAUAUUACGAUCG | -0.651 ± 0.12 | -0.58 ± 0.15 |

| Sequence | self-splicing fitness (ln) (30 °C) | self-splicing fitness (ln) (37 °C) |
| --- | --- | --- |
| GUUUAGCAAUAUUACGCACC | -1.95 ± 0.19 | -0.522 ± 0.26 |
| UGAAAGCAAUAUUACGUCGA | -0.893 ± 0.08 | -0.374 ± 0.1 |
| AGCGAGCAAUAUUACGGUCC | -0.807 ± 0.14 | -0.398 ± 0.18 |
| CCCGAGCAAUAUUACGGCUG | -4.35 ± 0.39 | -2.72 ± 0.33 |
| GACUAGCAAUAUUACGGUAU | -1.3 ± 0.074 | -0.543 ± 0.092 |
| ACGAAGCAAUAUUACGCCAG | -2.08 ± 0.19 | -1.72 ± 0.3 |
| CAAGAGCAAUAUUACGGGUC | -3.71 ± 0.21 | -2.17 ± 0.17 |
| GUGAAGCAAUAUUACGGAUU | -0.624 ± 0.1 | -0.344 ± 0.12 |
| GAGGAGCAAUAUUACGUUCG | -1.89 ± 0.2 | -1.27 ± 0.23 |
| ACGAAGCAAUAUUACGCUCA | -0.808 ± 0.11 | 0.223 ± 0.17 |
| UCCCAGCAAUAUUACGCCGG | -2.84 ± 0.28 | -1.21 ± 0.3 |
| AUAAAGCAAUAUUACGUACA | -0.00533 ± 0.067 | 0.315 ± 0.098 |
| GUGGAGCAAUAUUACGAGAU | -3.23 ± 0.36 | -2.22 ± 0.41 |
| UCCAAGCAAUAUUACGAAGC | -2.87 ± 0.25 | -1.93 ± 0.21 |
| UCUUAGCAAUAUUACGUUCA | -2.92 ± 0.14 | -1.85 ± 0.11 |
| AUCAAGCAAUAUUACGAACC | -1.05 ± 0.18 | -0.734 ± 0.25 |
| UUACAGCAAUAUUACGUGGC | -2.87 ± 0.26 | -2.92 ± 0.34 |
| GCGCAGCAAUAUUACGCAGA | -3.32 ± 0.22 | -2.5 ± 0.24 |
| UGCCAGCAAUAUUACGGAGA | -1.47 ± 0.096 | -0.852 ± 0.098 |
| AAGCAGCAAUAUUACGUGCA | -0.892 ± 0.065 | -0.453 ± 0.084 |
| GUACAGCAAUAUUACGAUCC | -0.427 ± 0.14 | 0.81 ± 0.18 |
| GCUUAGCAAUAUUACGAAAA | -1.6 ± 0.29 | -1.12 ± 0.28 |
| CUCCAGCAAUAUUACGCGAU | -3.55 ± 0.13 | -2.24 ± 0.14 |
| CCGCAGCAAUAUUACGAACC | -1.84 ± 0.39 | – |
| UCAGAGCAAUAUUACGGUCU | -1.95 ± 0.2 | -2.43 ± 0.39 |
